Assay results: patent publication US20190298769A1

Biological target: 4-1BB receptor on Jurkat cells that over express 4-1BB/NFκB/Luc (UniProt Q07011)
Assay: cell-based or functional assay

Sequence of UniProt Q07011 (Q07011 24-255 limits assumed): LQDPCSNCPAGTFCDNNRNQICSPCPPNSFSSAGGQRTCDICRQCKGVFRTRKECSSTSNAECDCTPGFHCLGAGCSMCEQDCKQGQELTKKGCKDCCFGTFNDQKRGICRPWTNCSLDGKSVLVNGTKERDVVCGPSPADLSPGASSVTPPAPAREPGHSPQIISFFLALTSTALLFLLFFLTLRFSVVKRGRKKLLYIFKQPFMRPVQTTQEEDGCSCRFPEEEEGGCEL

- NFκB activation (luciferase activity of Jurkat cells that over express 4-1BB/NFκB/Luc): 80 to 100 fold
- NFκB activation relative to the agonistic 4-1BB monoclonal antibody: 15 fold
Substance: 4-1BBL construct (human extracellular 4-1BBL - 4-1BBL linker - GPA) on the surface of engineered erythroid cells (ligand)
